For 1 substance, stoichiometry N results are on record in PMC5542595.

The target in the assay is Leptospira interrogans heme oxygenase, wild type, ferric heme complex (Leptospira interrogans). In words: cross-linking.

Regarding “Leptospira interrogans ferredoxin-NADP+ reductase, wild type (enzyme)”, the stoichiometry N (commonly a count of units in the complex or per binding partner) amounted to 1.
